From paper PMC8262862 (2021)

Assays:
Experiment in all cases: ELISA
[1] = target: H1 HA
[2] = target: H7 HA
[3] = target: H8 HA
[4] = target: H2 HA
[5] = target: H14 HA
[6] = target: H5 HA
[7] = target: H3 HA
[8] = target: H13 HA
[9] = target: B-Phuket HA
[10] = target: H4 HA
[11] = target: H9 HA
[12] = target: H10 HA
[13] = target: H6 HA

B1: S1V2-51 IgG (antibody, V domains shown)
VH: QVQLVESGGGVVQPGRSLRLSCVASGFTFRDSVMHWVRQAPGKGLEWVAVTSFDGGESYSADSVKGRFTISRDNSKSTLSLQMNILRPEDTGVYYCARDRGGLDVWGQGTTVTVSG
VL: DIVMTQSPESLAVSLGERATINCKSSQSVSFGSSDKNYLGWYQQKPGQPPKLLINWASTRESGVSDRFRGTGSGTDFTLTISSLQAEDAAVYYCHQYYTPPYSFGQGTKLEIK
[1]
  Kd: > 100 nM
[2]
  Kd: 0.21 nM
[3]
  Kd: 0.41 nM
[4]
  Kd: > 100 nM
[5]
  Kd: > 100 nM
[6]
  Kd: > 100 nM
[7]
  Kd: 0.26 nM
[8]
  Kd: > 100 nM
[9]
  Kd: > 100 nM
[10]
  Kd: 0.21 nM
[11]
  Kd: 0.21 nM
[12]
  Kd: 0.42 nM
[13]
  Kd: 84 nM
